We go through one molecule from publication PMC9606039, “Molecular analysis of a public cross-neutralizing antibody response to SARS-CoV-2” (Cell Reports, 2022).

For this assay, the target named is T1, receptor-binding domain (RBD) (residues 319-541) of the SARS-CoV-2 spike (S) protein (SARS-CoV-2, ancestral Wuhan-Hu-1 …, UniProt P0DTC2).
T1 construct: also called SARS-CoV-2 RBD; wild-type RBD
As to the kind of experiment: BLI. Conditions: both partners purified.

B1: 2-7 D54N Fab (Fab, V domains shown)
VH: QITLKESGPTLVKPTQTLTLTCTFSGFSLSTSGVGVGWIRQPPGKALEWLALIYWNDDKRYSPSLKSRLTITKDTSKNQVVLTMTNMDPVDTATYYCAHHKIERIFDYWGQGTLVTVSS
VL: QSALAQPASVSGSPGQSITISCTGTSSDVGAYNYVSWYQQHPGKAPKLMIYDVSKRPSGVSNRFSGSKSGNTASLTISGLQAEDEADYYCSSYTTSSTVFGGGTKLTVL
For B1, the “fold weakening of KD against the wild-type Fab” value is ≥ 100 fold.
